The results in this text go back to patent US5780296.

In this data set the test system is T1, REC2 recombinase (Ustilago maydis).
T1 sequence: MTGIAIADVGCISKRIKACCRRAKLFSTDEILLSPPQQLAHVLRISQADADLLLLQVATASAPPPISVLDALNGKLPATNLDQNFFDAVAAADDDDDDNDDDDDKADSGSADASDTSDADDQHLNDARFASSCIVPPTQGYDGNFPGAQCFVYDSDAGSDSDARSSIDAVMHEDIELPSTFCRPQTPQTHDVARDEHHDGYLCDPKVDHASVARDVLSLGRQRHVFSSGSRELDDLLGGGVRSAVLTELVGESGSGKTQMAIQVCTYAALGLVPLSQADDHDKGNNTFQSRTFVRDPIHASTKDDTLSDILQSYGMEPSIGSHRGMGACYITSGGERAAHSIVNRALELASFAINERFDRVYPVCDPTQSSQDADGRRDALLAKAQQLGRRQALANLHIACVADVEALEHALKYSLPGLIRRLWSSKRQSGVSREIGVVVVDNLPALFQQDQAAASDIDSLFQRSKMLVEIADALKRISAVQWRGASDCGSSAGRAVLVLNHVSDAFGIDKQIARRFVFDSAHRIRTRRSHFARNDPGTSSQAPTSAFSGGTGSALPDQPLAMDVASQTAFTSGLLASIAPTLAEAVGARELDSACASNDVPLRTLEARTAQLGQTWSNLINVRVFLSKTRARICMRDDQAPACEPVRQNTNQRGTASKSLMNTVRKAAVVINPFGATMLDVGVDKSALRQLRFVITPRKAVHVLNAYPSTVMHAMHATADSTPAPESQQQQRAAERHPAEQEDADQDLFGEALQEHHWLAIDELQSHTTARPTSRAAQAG
Particulars: DNA-dependent ATPase turnover; 10 mM MgCl2, pH 7.5, 37 C.

For M13 single-stranded circular DNA, the activity stood at 5.3 min⁻¹.
